Patent US20150368301A1

What was measured:
[1] = biological target: Phosphorylated Nox1 peptide (pNox1, KLKT*QKIYF); assay: ITC, pNox1 peptide injected into NoxA1 AD peptide, single site model, n=3, 25° C.
[2] = biological target: Phosphorylated Nox1 peptide (pNox1, KLKT*QKIYF); assay: ITC, phosphorylated versus unphosphorylated Nox1 peptide
[3] = biological target: Phosphorylated Nox1 peptide (pNox1, KLKT*QKIYF); assay: ITC, pNox1 peptide injected into NoxA1 AD peptide, single site model, n=3, 25° C.; phosphorylated Nox1 peptide (pNox1, T429)

- stoichiometry [1]: 0.86
- fold increase of association against the unphosphorylated Nox1 peptide [2]: > 100 fold
- Kd [3]: 1500 nM
Substance: NoxA1 activation domain (AD) peptide (…)
